Source: patent US20230390363A1, “Compounds, Compositions and Methods of Use to Treat Spinal Fusions” (PURDUE RESEARCH FOUNDATION, priority 2020, published 2023)
Non-standard residues stand in square brackets, D forms with d. Aib = CC(C)(N)C(=O)O

Tested on: posterolateral spinal fusion of L4-L5
Assay: Posterolateral spinal fusion of L4-L5 in rats: micro-CT and manual palpitation after treatment
Format: in vivo, rat
Conditions: for spinal fusion (micro-CT, manual palpitation): plain collagen matrix, rhBMP-2 10 μg soaked in matrix
Method: FIG. 6, panels A-C show three-dimensional reconstructions of micro-CT scans of a posterolateral spinal fusion of L4-L5 in a rat treated with a plain collagen matrix and a compound of SEQ ID NO: 2 for eight weeks. In some embodiments, SEQ ID NO: 2 was dosed (e.g., in rodents) at 33 nmol/kg twice a week. […] In some embodiments, the collagen matrix was applied during surgery. […] In some embodiments, phosphate-buffered saline was dosed at a 1× concentration twice a week in the same volume as SEQ ID NO: 2. […] Scores were assigned 0-5 on osteointegration, density, and bridging of both bilateral spinal fusions in microCT scans of the rats as determined by an individual who was blinded to the treatment and reviewed random samples. The total score is the sum of all five scores combined. […] The density of the scan was assigned based on a standard curve generated by a phantom hydroxyapatite standard set. A bilateral posterolateral lumbar spinal fusion was performed under aseptic conditions using isoflurane as an anesthetic. The skin surrounding the L2-L6 region on the back was shaved and disinfected using a Betadine solution followed by an alcohol pad. A 3-cm incision extending from the L3 to L6 vertebrae was made in the skin in this prepared area. The muscle on the vertebral body between the spinous process and the transverses process was bluntly dissected away from the vertebral body to expose the transverses processes. Using a low-speed burr, the L4 and L5 transverse processes cortical bone was removed in addition to the facia joint between the two vertebrae. The burr removed the surface layer of the bone. This process is known as decortication and was done to allow for direct regeneration of bone tissue. Following decortication, a drug-soaked collagen sponge was placed on each side of the vertebrae. A 5×7.5-mm collagen sponge was soaked to saturation in the drugs for 10 minutes. The collagen sponge (RCM6 membranes from ACE surgical supplies) served as a scaffold to aid in the fusion of the vertebrae. Mineralized collagen scaffolds (supplied by Houston Methodist, Houston, TX) and collagen scaffolds wrapped around anorganic bone granules (InterOss bone granules; SigmaGraft Inc. Biomaterials, Fullerton, CA) were also separately used. The inter-muscle was closed with resorbable sutures. The exterior wound was then sutured closed using a nylon suture. Subcutaneous buprenorphine (0.05-0.1 mg/kg) was then administered directly after the operation and was repeated every 12 hours for the next 3 days post-surgery. Fracture healing was assessed using micro-CT (Scanco Medical Ag or PerkinElmer). The anesthetized animal was scanned for two minutes with the PerkinElmer Quantum FX micro-CT at high resolution with a voxel size of 10 μM at 90 kV and 88 uA and an Al 0.5 mm+Cu 0.06 mm filter. The scanning detector rate was 117 fps. The images were analyzed in ImageJ using the BoneJ package. Morphometric parameters were quantified in an ROI that included just the fracture callus. Trabecular thickness (Tb.Th.), trabecular spacing (Tb. Sp.), total volume (TV), and volume of calcified callus (BV) were calculated. Statistical analysis was performed using a one-way analysis of variance (ANOVA) and a Dunnett's post-hoc analysis with significance reported at the P value of 0.05. All animal experiments were performed in accordance with protocols approved by Purdue University's Institutional Animal Care and Use Committee (IACUC). Rats were scanned in AMI after being anesthetized with isoflurane.

B1: H-AVSEHQLLHDKGKSIQDLRRRELLEKLLxKLHTAEIRATSEVSPNSeeeeeeeeeeeeeeeeeeee (peptide)
chain: H-AVSEHQLLHDKGKSIQDLRRRELLEKLL[Aib]KLHTAEIRATSEVSPNS[dE][dE][dE][dE][dE][dE][dE][dE][dE][dE][dE][dE][dE][dE][dE][dE][dE][dE][dE][dE]
notes: PTHrP fragment conjugated at its C-terminus to a linear peptide of 20 D-glutamic acid residues; x=Aib, e=D-glutamic acid
change of bone graft granules on micro-CT (bone graft matrix, eight weeks): the granules resorb
spinal fusion (manual palpitation) (bone graft matrix, eight weeks, SEQ ID NO: 2 33 nmol/kg twice a week, rhBMP-2 10 μg): no fusion
spinal fusion (micro-CT) (mineralized collagen scaffold, eight weeks of treatment): none of the treatments had fused
mineralization of the scaffolds (micro-CT) (mineralized collagen scaffold, five weeks of treatment, preliminary results): increased the mineralization of the scaffolds more than BMP2 or saline
spinal fusion (micro-CT, manual palpitation) (eight weeks, SEQ ID NO: 2 33 nmol/kg twice a week): Fusion was confirmed
spinal fusion (micro-CT, manual palpitation) (eight weeks, SEQ ID NO: 2 33 nmol/kg twice a week, listed as SEQ ID NO.: 2): fused
